The results in this text go back to patent US20250002610A1 (Genmab, published 2025).

Experiment [1] has as its target T1, cynomolgus monkey DR4 with death domain deletion on ExpiCHO-S cells (cynomolgus monkey (Macaca fascicularis)).
T1 construct: also called cynomolgus DR4
T1 chain: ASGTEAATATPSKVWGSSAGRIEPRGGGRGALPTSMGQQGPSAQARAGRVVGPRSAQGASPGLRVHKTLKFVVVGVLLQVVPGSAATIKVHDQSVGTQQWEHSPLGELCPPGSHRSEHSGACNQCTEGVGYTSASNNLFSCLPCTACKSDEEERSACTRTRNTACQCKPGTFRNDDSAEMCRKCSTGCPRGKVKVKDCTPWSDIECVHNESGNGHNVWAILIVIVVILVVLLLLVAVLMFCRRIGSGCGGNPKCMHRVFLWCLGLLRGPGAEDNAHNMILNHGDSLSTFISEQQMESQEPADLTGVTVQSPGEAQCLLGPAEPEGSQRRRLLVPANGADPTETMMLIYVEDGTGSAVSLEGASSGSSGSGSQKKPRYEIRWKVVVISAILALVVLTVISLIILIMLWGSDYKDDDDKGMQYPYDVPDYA
Description: flow cytometry, ExpiCHO-S cells expressing cynomolgus monkey DR4, n = 2. On the procedure: Binding of BisG1-FAPα-FERL/DR4-FERR, BisG1-DR4-FEAL/b12-FEAR and IgG1-DR4-FERR to DR4 of various species commonly used for nonclinical toxicology studies was assessed by flow cytometry using ExpiCHO-S cells transiently expressing DR4 from different animal species. In contrast to other species, rodents only express one DR which has highest homology with human DR5. Therefore, ExpiCHO-S cells transiently expressing rat and mouse DR protein were used instead. All DR constructs lack the intracellular DD to avoid apoptosis of transfected cells upon DR(4) activation. IgG1-b12 was used as negative control.
(In general: In flow cytometry, cells or beads pass a laser one at a time.)

Experiment [2] has as its target T2, FcγRIIa-R131 (CD32A Protein, Human, Recombinant (167 Arg, His & AVI Tag), Biotinylated) (human, UniProt P12318 34-218, limits assumed, biotinylated).
T2 construct: Bought reagent; not shown: His & AVI tag
T2 sequence (looked up): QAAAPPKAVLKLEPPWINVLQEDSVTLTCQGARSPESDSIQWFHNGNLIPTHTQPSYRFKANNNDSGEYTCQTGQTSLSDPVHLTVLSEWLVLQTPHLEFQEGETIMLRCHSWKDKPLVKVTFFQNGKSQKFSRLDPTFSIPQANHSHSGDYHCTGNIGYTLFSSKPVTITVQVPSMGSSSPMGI
Description: SPR (Biacore 8K), His-tagged FcγRIIa-R131 captured on an anti-His chip, antibody as analyte, endpoint response against concentration. On the procedure:
Binding of BisG1-FAPα-FERL/DR4-FERR to immobilized human His-tagged FcγRs and FcRn was analyzed by SPR using a Biacore 8K SPR system (Cytiva). To this end, anti-His antibodies were covalently immobilized on the surface of Biacore Series S Sensor Chip CM5 (Cytiva, Cat. #29104988) using the Amine Coupling Kit (Cytiva, Cat. #BR100050) and a His Capture Kit (Cytiva, Cat. #29234602) according to the manufacturer's instructions. To assess antibody binding to immobilized human FcγRs, aliquots of the recombinant His-tagged FcγR proteins (Table 24) were diluted in HBS EP+Buffer pH 7.4 (Cytiva, Cat. #BR100669) and used to capture the FcγR proteins on the surface of the anti-His antibody-coated sensors using a flow rate of 10 μL/min and a contact time of 60 s. Captured levels ranged from 434 to 592 RU. After three start-up cycles of HBS-EP+Buffer, concentration ranges of BisG1-FAPα-FERL/DR4-FERR or IgG1-b12 antibodies (Table 25) were injected to generate binding curves on FcγR-captured sensors (active surface). For each antibody sample, a parallel flow cell without captured FcγRs was included (reference surface), which was used for RU background correction.
All sensorgrams were subtracted by the signal of the third start-up cycle with buffer only (mock analyte). […]
For orientation: In SPR one partner is held on a chip, and binding of the other changes the refractive index at the surface.

B1: IgG1-DR4-FERR (antibody, V domains shown)
VH: QVQLQESGPGLVKPSGTLSLTCAVSGGSISSYSWWSWIRQPPGKGLEWIGELYHSGSTNYNPSLKSRVTISVDKSKNQFSLKLRSVTAADTAVYYCVRGVATIDYWGQGTLVTVSS
VL: QSALTQPPSASGSPGQSVTISCTGTSSDVGGYNFVSWYQQDPGKAPKLLIYEVTKRPSGVPDRFSGSKSGNTASLTVSGLQAEDEADYYCSSYAGSNNVMFGGGTKLTVLG
notes: Bivalent monoclonal IgG1 lambda
In experiment [1], B1 came in with an EC50 of 1.94 µg/mL.

B2: IgG1-b12 (antibody)
heavy: not shown
light: EIVLTQSPGTLSLSPGERATFSCRSSHSIRSRRVAWYQHKPGQAPRLVIHGVSNRASGISDRFSGSGSGTDFTLTITRVEPEDFALYYCQVYGASSYTFGQGTKLERKRTVAAPSVFIFPPSDEQLKSGTASVVCLLNNFYPREAKVQWKVDNALQSGNSQESVTEQDSKDSTYSLSSTLTLSKADYEKHKVYACEVTHQGLSSPVTKSFNRGEC
notes: HIV gp120 antibody b12 with wild-type IgG1 Fc; also called IgG-b12
B2: the binding result in experiment [2] is reported as “binds”.

Usually EC50 stands for the concentration needed to bring the measured effect to its halfway point.
